Measurements as given in patent publication WO2025026282A1 (dated 2025).

Key:
[1] = target: human CD64 (human, UniProt P12314 16-292, limits assumed); assay: BLI (Octet), human CD64
[2] = target: T1, human CD32 alpha (human, UniProt P12318 34-217, limits assumed); assay: BLI (Octet), human CD32 alpha
T1 construct: also called FcgammaRII
T1 sequence (looked up): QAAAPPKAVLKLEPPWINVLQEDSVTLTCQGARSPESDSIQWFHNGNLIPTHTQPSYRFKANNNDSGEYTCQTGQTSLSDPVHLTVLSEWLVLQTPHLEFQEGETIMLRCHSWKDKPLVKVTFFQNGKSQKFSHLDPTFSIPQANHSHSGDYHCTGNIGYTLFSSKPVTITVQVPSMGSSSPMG

Chain of human CD64 (P12314 16-292 limits assumed): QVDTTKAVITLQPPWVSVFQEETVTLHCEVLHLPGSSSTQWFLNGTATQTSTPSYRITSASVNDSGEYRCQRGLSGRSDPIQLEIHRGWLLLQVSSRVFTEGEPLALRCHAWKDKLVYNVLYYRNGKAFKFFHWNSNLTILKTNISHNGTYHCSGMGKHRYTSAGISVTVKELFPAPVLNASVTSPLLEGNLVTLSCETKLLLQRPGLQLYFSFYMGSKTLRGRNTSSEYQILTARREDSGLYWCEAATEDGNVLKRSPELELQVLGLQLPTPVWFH

B1: 12A39 (2:1:1 asymmetric tri-specific antibody, Type E structure, CEA x CD3 x PD-L1) (other)
chain 1: QAVVTQEPSLTVSPGGTVTLTCRSSTGAVTTSNYANWVQQKPGQAPRGLIGGTNKRAPWTPARFSGSLLGGKAALTLSGAQAEDEADYYCALWYSNLWVFGGGTKLTVLRTVAAQVQLVQSGAEVKKPGSSVKVSCKTSGDTFSSYAISWVRDAPGQCLEWMGGIIPIFGKAHYAQKFQGRVTITADESTSTAYMELSSLRSEDTAVYFCARKFHFVSGSPFGMDVWGQGTTVTVSSASEPKSSDKTHTCPPCPAPPVAGPSVFLFPPKPKDTLMISRTPEVTCVVVDVSQEDPEVKFNWYVDGVEVHNAKTKPREEQFNSTYRVVSVLTVLHQDWLNGKEYKCKVSNKGLPSSIEKTISKAKGQPREPQVYTLPPSRDELTKNQVSLWCLVKGFYPSDIAVEWESNGQPENNYKTTPPVLDSDGSFFLYSKLTVDKSRWQQGNVFSCSVMHEALHNHYTQKSLSLSP
chain 2: EVQLVESGGGLVQPGGSLRLSCAASGFTFTDYYMNWVRQAPGKALEWLGFIRNKVNGDTTEYAASVKGRFTISRDDSKNSLYLQMNSLKTEDTAVYYCARDKGIAYYFDYWGQGTLVTVSSASTKGPSVFPLAPSSKSTSGGTAALGCLVKDYFPEPVTVSWNSGALTSGVHTFPAVLQSSGLYSLSSVVTVPSSSLGTQTYICNVNHKPSNTKVDKKVEPKSCDGGGGSGGGGSEIVLTQSPATLSLSPGERATLSCRASQSVSSYLAWYQKKPGQAPRLLIYDASNRATGIPARFSGSGSGTDFTLTISSLEPEDFAVYYCQQRSNWPTFGCGTKVEIKRTVAAEVQLVESGGGLVQPGGSLRLSCAASGFTFSTYAMNWVRQAPGKGLEWVGRIRSKYNNYATYYADSVKGRFTISRDDSKNSLYLQMNSLRAEDTAVYYCVRHGNFGTSYVSWFAYWGQGTLVTVSS
heavy: EVQLVESGGGLVQPGGSLRLSCAASGFTFTDYYMNWVRQAPGKALEWLGFIRNKVNGDTTEYAASVKGRFTISRDDSKNSLYLQMNSLKTEDTAVYYCARDKGIAYYFDYWGQGTLVTVSSASTKGPSVFPLAPSSKSTSGGTAALGCLVKDYFPEPVTVSWNSGALTSGVHTFPAVLQSSGLYSLSSVVTVPSSSLGTQTYICNVNHKPSNTKVDKKVEPKSCDKTHTCPPCPAPPVAGPSVFLFPPKPKDTLMISRTPEVTCVVVDVSQEDPEVKFNWYVDGVEVHNAKTKPREEQFNSTYRVVSVLTVLHQDWLNGKEYKCKVSNKGLPSSIEKTISKAKGQPREPQVYTLPPSRDELTKNQVSLSCAVKGFYPSDIAVEWESNGQPENNYKTTPPVLDSDGSFFLVSKLTVDKSRWQQGNVFSCSVMHEALHNRFTQKSLSLSP
light: EIVLTQSPATLSASPGERATLSCRASQSVSYIHWYQQKPGQSPRPWIHGTSNLATGVPARFSGSGSGTDFTLTISSLEPEDAAVYYCQQWSSNLSTFGGGTKVEIKRTVAAPSVFIFPPSDEQLKSGTASVVCLLNNFYPREAKVQWKVDNALQSGNSQESVTEQDSKDSTYSLSSTLTLSKADYEKHKVYACEVTHQGLSSPVTKSFNRGEC
notes: Tri-specific antibody; also called polypeptide complex 12A39
In the case of B1, the binding result [1] is reported as “binds” and the Kd [2] is reported as roughly 527 nM.
